Numbering of substitutions follows the chain as printed.
B1: histidine tagged wild-type interferon-beta-1a (ligand)
chain: SGGHHHHHHSSGDDDDKMSYNLLGFLQRSSNFQCQKLLWQLNGRLEYCLKDRMNFDIPEEIKQLQQFQKEDAALTIYEMLQNIFAIFRQDSSSTGWNETIVENLLANVYHQINHLKTVLEEKLEKEDFTRGKLMSSLHLKRYYGRILHYLKAKEYSHCAWTIVRVEILRNFYFINRLTGYLRN
notes: also called his IFN-beta; His6-tagged
B2: his tagged-interferon-beta alanine substitution mutant E (ligand)
chain: B1 chain with V165A, R169A, Y172A, N175A
notes: Tested as conditioned medium of EBNA 293 cells
B3: his tagged-interferon-beta alanine substitution mutant AB1 (ligand)
chain: B1 chain with L45A, E46A, Y47A, L49A, K50A
notes: as for B2
B4: his tagged-interferon-beta alanine substitution mutant A2 (ligand)
chain: B1 chain with F32A, Q33A, Q35A, K36A, W39A, Q40A
notes: as for B2
B5: his tagged-interferon-beta alanine substitution mutant AB2 (ligand)
chain: B1 chain with M53A, N54A, D56A, E59A
notes: as for B2

Assays:
[1] = target: T1, type I interferon cell surface receptor complex (IFNAR1/2 complex) expressed on Daudi Burkitt's lymphoma cells (human, UniProt P17181 28-557; P48551 27-515); test: FACS on Daudi cells, inhibition of EA12 staining; reference of the assay, value not given
T1 construct: whole, on cells; Endogenous receptor of human Daudi cells; both chains together comprise the receptor for interferon-beta; also called IFNAR1/2 cell surface receptor; cognate receptor on Daudi cells
T1 sequence (looked up) 1: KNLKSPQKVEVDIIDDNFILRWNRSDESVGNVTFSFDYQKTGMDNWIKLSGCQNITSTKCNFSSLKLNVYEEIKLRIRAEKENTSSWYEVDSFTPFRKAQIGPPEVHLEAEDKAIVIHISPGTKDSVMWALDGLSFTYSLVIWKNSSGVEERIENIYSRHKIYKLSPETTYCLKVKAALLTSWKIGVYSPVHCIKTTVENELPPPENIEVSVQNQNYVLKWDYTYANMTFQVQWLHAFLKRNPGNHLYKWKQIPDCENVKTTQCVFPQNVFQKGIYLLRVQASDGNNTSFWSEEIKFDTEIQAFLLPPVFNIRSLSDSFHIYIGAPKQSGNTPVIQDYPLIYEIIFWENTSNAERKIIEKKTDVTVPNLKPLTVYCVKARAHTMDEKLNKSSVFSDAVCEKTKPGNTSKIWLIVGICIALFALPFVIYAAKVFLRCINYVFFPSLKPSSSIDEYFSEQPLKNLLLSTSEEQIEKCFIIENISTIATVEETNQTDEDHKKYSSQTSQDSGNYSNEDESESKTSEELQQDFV
T1 sequence (looked up) 2: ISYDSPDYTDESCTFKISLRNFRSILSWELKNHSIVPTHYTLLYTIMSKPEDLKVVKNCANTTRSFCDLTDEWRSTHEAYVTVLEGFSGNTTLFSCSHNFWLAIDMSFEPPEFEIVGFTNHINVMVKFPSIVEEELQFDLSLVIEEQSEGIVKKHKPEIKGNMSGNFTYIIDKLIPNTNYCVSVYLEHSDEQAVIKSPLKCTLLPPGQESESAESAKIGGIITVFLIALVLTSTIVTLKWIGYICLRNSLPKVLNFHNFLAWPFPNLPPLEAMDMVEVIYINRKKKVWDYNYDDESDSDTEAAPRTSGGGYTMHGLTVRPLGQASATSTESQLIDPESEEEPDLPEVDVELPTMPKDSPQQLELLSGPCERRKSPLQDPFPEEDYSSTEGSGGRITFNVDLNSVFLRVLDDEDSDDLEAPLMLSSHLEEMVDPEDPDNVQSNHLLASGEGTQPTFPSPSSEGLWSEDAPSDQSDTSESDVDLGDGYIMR

[2] = target: T2, IFNAR2/Fc fusion protein (extracellular domain of the human IFNAR2 receptor chain fused to the hinge, CH2 and … (human, UniProt P48551 27-243)); test: ELISA on captured IFNAR2/Fc; reference of the assay, EC50 not given
T2 construct: extracellular domain; Expressed in CHO cells, purified on protein A, captured on plates by mouse anti-human IgG1 mAb CDG5-AA9; also called IFNAR2-ectodomain/Fc fusion protein; IFNAR/Fc; not shown: human IgG1 heavy chain constant region: hinge, CH2 and CH3 domains
T2 sequence (looked up): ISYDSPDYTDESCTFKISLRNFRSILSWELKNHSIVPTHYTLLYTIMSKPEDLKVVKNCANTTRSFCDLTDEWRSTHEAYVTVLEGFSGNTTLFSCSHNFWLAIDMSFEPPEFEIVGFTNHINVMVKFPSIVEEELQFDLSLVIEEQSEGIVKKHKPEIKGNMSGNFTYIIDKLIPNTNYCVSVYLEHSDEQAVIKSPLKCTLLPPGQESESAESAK

[3] = target: T2, IFNAR2/Fc fusion protein (extracellular …); test: ELISA on IFNAR2/Fc captured by anti-human IgG1 mAb
[4] = target: T2, IFNAR2/Fc fusion protein (extracellular …); test: ELISA on captured IFNAR2/Fc

binding result [1] | binding result [2] | binding result [3] | concentration without binding, fold over the w.t. his-IFN-beta EC50 [4] [fold] | Binder
binds | binds | – | – | B1
– | – | no binding | > 500 | B2
– | – | no binding | > 500 | B3
– | – | no binding | 500 | B4
– | – | no binding | > 500 | B5
